Reference: PMC10806198, “Effects of OxyR regulator on oxidative stress, Apx toxin secretion and virulence of Actinobacillus pleuropneumoniae”

T1: OxyR (rOxyR) (Actinobacillus pleuropneumoniae 4074 …, UniProt A0ABM6X4Q0 1-297)
T1 sequence: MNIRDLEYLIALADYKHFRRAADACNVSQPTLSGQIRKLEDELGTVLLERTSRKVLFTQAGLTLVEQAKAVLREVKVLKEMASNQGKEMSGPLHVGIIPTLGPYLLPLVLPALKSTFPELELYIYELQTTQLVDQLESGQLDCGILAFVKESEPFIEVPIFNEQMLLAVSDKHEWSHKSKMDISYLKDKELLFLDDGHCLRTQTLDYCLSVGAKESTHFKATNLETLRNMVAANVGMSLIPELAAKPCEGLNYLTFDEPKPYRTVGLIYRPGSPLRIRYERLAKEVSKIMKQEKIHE

B1: catalase promoter probe (05430p) (dsDNA)
DNA 1: ATAATAATATATCCATACACAAAACCTATTAACATTCCAA
DNA 2: TTGGAATGTTAATAGGTTTTGTGTATGGATATATTATTAT
B2: apxIBD promoter probe (ApxIBDp) (dsDNA)
DNA 1: ATGATAAATAGCAATCCTATATATATTAGGTGTGTAGGAT
DNA 2: ATCCTACACACCTAATATATATAGGATTGCTATTTATCAT
B3: oxyR promoter probe (oxyRp) (dsDNA)
DNA 1: GAACGTACCAGCCGTAAGGTATTATTTACCCAAGCCGGTT
DNA 2: AACCGGCTTGGGTAAATAATACCTTACGGCTGGTACGTTC

target: T1, OxyR (rOxyR); experiment: EMSA; dose-dependent; abolished by excess unlabeled probe; Lightshift EMSA binding buffer (composition and pH not given), 0.5 ul poly[d(I-C)], 10 ul, 25 C 30 min; 5% native PAGE in 0.5x TBE; conditions: protein: recombinant; tags: His (pET28a NdeI/XhoI, HisTrap purified); chain copies: 4; label: biotin 3'-end; blunt

Row | Binder | binding result
1 | B1 | binds
2 | B2 | binds
3 | B3 | binds
